Test results from the DeepSol protein solubility set.

Assay: soluble on expression in E. coli; label from the status in PepcDB or PDB records

Row | Sequence | soluble on expression in E. coli
1 | MSLKEIGPNSLLLEDSHSLSQLLKKNYRWYSPIFSPRNVPRFADVSSITESPETLKAIRDFLVERYRTMSPAPTHILGFDARGFLFGPMIAVELGIPFVLMRKADKNAGLLIRSEPYEKEYKEAAPEVMTIRHGSIGKNSRVVLIDDVLATGGTALSGLQLVEASGAEVVEMVSILTIPFLKAAERIHSTAGGRYKNVRFIGLLSEDVLTEANCGDLNDYTGPRVLSCSDLLVNQ | soluble
2 | MSLKEPRWRDPELPEVLAMLRHPVDPVKANAAAYLQHLCFENEGVKRRVRQLRGLPLLVALLDHPRAEVRRRACGALRNLSYGRDTDNKAAIRDCGGVPALVRLLRAARDNEVRELVTGTLWNLSSYEPLKMVIIDHGLQTLTHEVIVPHSGWEREPNEDSKPRDAEWTTVFKNTSGCLRNVSSDGAEARRRLRECEGLVDALLHALQSAVGRKDTDNKSVENCVCIMRNLSYHVHKEVPGADRYQEAEPGPLGSAVGSQRRRRDDASCFGGKKAKEEWFHQGKKDGEMDRNFDTLDLPKRTEAAKGFELLYQPEVVRLYLSLLTESRNFNTLEAAAGALQNLSAGNWMWATYIRATVRKERGLPVLVELLQSETDKVVRAVAIALRNLSLDRRNKDLIGSYAMAELVRNVRNAQAPPRPGACLEEDTVVAVLNTIHEIVSDSLDNARSLLQARGVPALVALVASSQSVREAKAASHVLQTVWSYKELRGTLQKDGWTKARFQSAAATAKGPKEGHHHHHH | not soluble
3 | MSLKFHSPYLPLIKLIIVVKTPLELITDNLLPTIKVLIAKKLRELGMSQNRIAILLGVTQPAVKQYLDEDENFQYEKLRELGLKDEEIEDITQDLVNILNKNDTKSAMYYITDIGLRYLSELKFCKFHKENDKYIPQDCDICRYIYRQNEEERMEIALSMLQNEFVTPLIPEVLSNLAFARKNPKGINDVLAVEGRITKVKGIPTPASNPSWGSSKHLATILLKIMQKDPSIRSIMNIKYDKKIDEALHFLNFRIVYVGPSDENDDESISNLIYSAFYSGIDCVVHLGGKGLEPITYVLGKDPVEVVKKVIEIGKKYRELTENEGHHHHHH | soluble
4 | MSLKFTAIDFETANEKRNSPCSIGIVVVKDGHVVEKSHHLIRPKEMRFMPINIGIHGIRPAMVEKEPEFDKVWEKIKHYFDDTLVIAHNASFDISVLRKSAELYNIELPEFNYICTMKLARNFYKGIENAKLNTVNNFLGYEFRHHDALYDALACSNIMLSISKELKCKDITEISKLLGVTVGKVDSKGYKPSQTKGIAVRTSDRIYFSKKKSAFERLKADEFKNEVVVFTGRLDSMSRDEAMGLVRRLGGTAGSSVTKKTTILVTNMKNIKNLRREEMSNKLKRASDLNARGQNIKFLNEEEFLKIKEGHHHHHH | soluble
5 | MSLKGGYAVVDFKVPNERDNASTTKLEVNFPTDHPLASVMPQPVPGWKAEVTKAKPAKPLESHGKQITEVVTKVTWTADGKGVEPGYFQKFPVSIGALPEDADQLVFKAIQTYSNKEVVRWIEVPQEGQEEPETPAPVLKLSAAEDDAHGASEGHHHHHH | soluble
6 | MSLKGTPGNVPAARTGIEITPAHRAFFHALPKIELHCHLLGAVRHDTFVALAERSGAPIERAEIDAFYARGEKPVGVLHVLRALDRYLLTQPDDLRRIAYEYLEDAAAYNVRHAEFFWNPTGTVHVSGIAYADAQAAIVTGIRDAARDFGIGARLIPSIDREQDPDEAVAIVEWMKANRADEVAGLGIDYRENDRPPELFWKAYRNARAAGFRTTAHAGEFGMPWRNVETAVDLLQVDRVDHGYTIVDNPELCARYAERGIVFTVVPTNSYYLRTLPPEQWAERHPMRKMPGLGLKIHPNTDDPTLHKVNPSEAWELMFSHFGFTVAELKQFMLNGIDGAWVDDTTKAAWRAAWAPEFDVLAATLAAGEGHHHHHH | soluble
7 | MSLKGTYEKSIHIVKKNKYKTIDVVFGNLKEGIPLAEKSINHGTRIIISRGGTYNMLKATYNIPIVEIKVDAYDIIKSYKEVKNSNEPFGIIGFNNVIYGFDIIEEILNKKITMIEIEKEEEIYDAIEKYRKKGINTYIGDTTVAHIVKRLNCKGILIESREENILRAIQQAEQILEATKDEQKREGHHHHHH | not soluble
8 | MSLKHPDPAQKVEGTTATTPTKVAAFFDLDKTIIAMSSTYAYGREFMNSGLISPVEALQLSLAQATYMFAGHTSEQMDNTRDQLTAMIRGWEVQQVRSIAEETMHSVVTPTIYAEARELIEHHQELGHDVIIISASVKELVEPIARELGVHKTVTTVLEAHDGMYTGEVLFYCKGDAKAQSILDLAEANNYDLSLSFAYSDSFTDLPMLEAVGNPAAVNPDRALKKIALEQGWKILSFKNPEPLFQEGHHHHHH | soluble
9 | MSLKIAIVNDMPMAVEALRRALAFDPSHEVVWVATNGAEAVKYCAELTPDLILMDLIMPVMDGVEATRRIMAESPCAIVIVTVDRQQNVHRVFEAMGHGALDVVDTPALGAGNAQEAAAPLLRKILNIGWLIGQEGHHHHHH | not soluble
10 | MSLKIDAVDLFYLSMPEVTDAADGSQDALLVRVAAGGHIGWGECEAAPLPSIAAFVCPKSHGVCRPVSDSVLGQRLDGPDDIARIAALVGYNSMDLLQAPHMLSGIEMALWDLLGRRLSAPAWALLGYSASHGKRPYASLLFGDTPQETLERARAARRDGFAAVKFGWGPIGRGTVAADADQIMAAREGLGPDGDLMVDVGQIFGEDVEAAAARLPTLDAAGVLWLEEPFDAGALAAHAALAGRGARVRIAGGEAAHNFHMAQHLMDYGRIGFIQIDCGRIGGLGPAKRVADAAQARGITYVNHTFTSHLALSASLQPFAGLEADRICEYPAAPQQLALDITGDHIRPDAEGLIRAPEAPGLGLQVAASALRRYLVETEIRIGGQLIYRTPQLEGHHHHHH | soluble
11 | MSLKIILSIFLAFFLSACGVKLSLPKEVDLTQEQMKDLNLTYDWYRSYDNAKLNEFLNFVLLNNSDINIARKTLLSALARADLIDYDLYPTLSGNLGFGADKDLNSGKQSKNFNNSLNLSYELDIYGKLRDSASASEFSAKASAYDLENLKISMINTALNDVFELAYFNDVDKLLRAYLSNLEQMKELYNYKYKLGKIEELDLLNIEQSLLRAKQNLLSNDQNRNLLIKNLQDLLARQEGFAYIEYFKTLSEGHHHHHH | soluble
12 | MSLKIKALLLDIDGTMVFKGHAIPGAAEAIEAARMAGLQLRFLTNITGQLPSTIAEDLQRHGINVRAEEIHTASTSCARYLKSLGDVSCFFLMPESVNSMFEGIARDHVSPDVVVIGDIGESFDYACLNQAFGYLHKGARLVVPHKNLFWFDPRGVRLDCGAFILGLEAASGKQALVTGKPSPVFFTSVMDSLGVKPSQTMIIGDDLLTDIAAAQHLEVAHALVLTGKGASYTESDVPRPERLWPSIAELSRFLAQSGHNTEGHHHHHH | soluble
13 | MSLKILFASSESYPFIKTGGLGDVSYALPKALRKIGIDARVIIPKYSDIPEYFRYNTHHIASFGVPVGWRSQYGGLEYYEYDGVPFYFIDNDYYFKRSGLYGYYDDGERFAYFSRGVLQAITYMQDFNPDIIQCNDWQTAIIPVLLKDHYRNYRNYNHIKTIFTIHNLKYQGVFGKSVLGELLCLNEGYYNENALKFYDGISFMKGGILFSDKLSTVSRTYAEEIKDPYYGEHLDGLLRSRSYDLWGIVNGIDYDILNPETDKDLFFNFDSSTLYNKTKNKIELQKMLNLPVSENIPMIGIVSRLVSQKGLDLISCVLEDLLQDGIQLVVLGTGDAKYENMFKYFAWKYPNKLSANIQFNNSLAQKIYGASDMFLMPSKFEPCGIGQLIALRYGSLPIVRETGGLKDTVRPFNPITGEGNGFSFTNYNAHDMLHVIRNAEYFYYNEKYNWNKLVQTAMNDDNSWSKSAEIYRNLYMSVLEGHHHHHH | not soluble
14 | MSLKISVIIPIYNAENYIEKAFSSLKNQTLAQNEFEILCIDDKSTDNSLGKLKQLSKIHKNMRIINLHKNSGGPMIPRNKGIKEAKGKYIIFLDNDDYLGEEALERLFIQAEKNQSEVIFGKYVGINGRGVPQSQFKKGNRNEADILADNLVYTLAPHKMFQTAFLKTKKIYFDPNILIGEDQYFVMKAYVNAKVITVLADYDYYYVVSRGDENLSIKESKMDPREICKVVPAVVKEIEASPLHPTYKKTLIRAYIQRYFNDYITGNYNLDYKNMSERQKTFVQVMKDTIVCHLDEKMKNELPTKTRFMIDIIAENNPEKLIDVRMQMENFSKNQVVKVENGYIKGRFRKMRPQLAYDDVYDINHLNSSKVQLHSVTLQNNNYLLDISLEQSLLTRFQTALRLCLKERDGNLEIWISPLKMLSTERGIYAVDSTLFNHTCIWDLFIESEINGFKNRKRVGKDRDFEEIVSSNNTPLLIQNNSYQIKAYFTTPFSNLSFQIISEEGHHHHHH | soluble
15 | MSLKITWLGHAAFLLEGSMKVLIDPFLTGNPNAPVKPEEVKADYILVTHGHGDHLGDAVEIAKRNNAPIICIHELSRILSRYDVETMGMNMGGTARTGSIAVTMVPAWHSADLEDEQGNIISAGLPAGFIVSMDGVRVYHTGDTDVFLDMQLIGELHRPDVMLLPIGDYYTMGIAGAVKALELVKPKVAIPMHYNTFPLVEKDPEDFRKAVKAKGLDVEVVILKPGESYEFNKEGGSHHHHHH | soluble
16 | MSLKIVIIGGVAGGMSAATRLRRLMEDAEIVVMEKGPFVSFANCGLPYYVSGEIAEREQLLVQTPEALKARFNLDVRPHHEVVAIDPIEKVITVKHETEILTEHYDKLILSPGAKPFVPPITGLAEAKNVFSLRNVPDLDQIMTALTPETKRAVVIGAGFIGLEMAENLQKRGLEVTLVEKAPHVLPPLDEEMAAFVKAELSKNNVQVITGQSAVAFEEEGQVIRLEDGQTLASDLTILSVGVQPENTLAVEAGVATGLRGGIVVDEHYQTNQPDIYAVGDAIVVKQQITQEDALISLASPANRQGRQVADVIAGLERKNQGSIGTAIVRVFDLTAASTGLSERAAKAAGLTTAVVHISGKDHAGYYPGATDLQLKLVFHPTTGEIYGAQGIGAKGVDKRIDILATAIKGQLTIFDLPELEFTYAPPFGSAKDPVNMLGYAAMNLVEGLSENVQWYELSNELANGAVLLDVRNPAERANGQFKNAVSIPLNELRERLEELDKSTEYIVSCHSGLRSYIAERMLKQAGISAKNLDGAFALYRMVKPEELENEGHHHHHH | soluble
17 | MSLKKSFLLLPLSLVVLSACTSNFPAPISDADGNFSPSVIQSVNGSNVGGAWQPEIQKNSLPTTGNMVTPQQNFQPINQQPTMPTAPAQPAFQPSPKTVVSAPTVQTKTVTKTVADCVDGQHINIPRNPNTNAPDYSKISKGSYKGNTYKVNKGDTMFLIAYLAGIDVKELAALNNLSEPYNLSLGQVLKISNCDIKTVTTTVSVKQPAVTASTATPVKPAVTYTPGANGTQIGSDGTIIGPIKSEAGTSPSVPVATSSTQVTSSVNNANSTPINSNVVAPIASNVVWQWPTSGNIIQGFSSTDGGNKGIDISGSRGQAVKAAAAGRIVYAGNALRGYGNLIIIKHNDDFLSAYAHNDKILVADQQEVKAGQDIAKMGSSGTNTVKLHFEIRYKGKSVDPVRYLPRHEGHHHHHH | not soluble
18 | MSLKKVKCITGMISLQGKRPTNEDTEIVKDKIKKDKIKFGLYAVFDGHGGSGTSQAAISVVEEELMKSELMKKKMYEEMMNEIFSKSDKILCNTVYDNSGCTAAVVLVIGRFLICANVGDSEVLVISEGKQYEVLSVQHKAKLPDEKKRITSLGVPVYGGRVYGSLAVSRSLGDKQYKGGRGAVISTPHVKVYEMTKKDKAFVISCDGIYETLNYDDVVDWVITGMKLNKAPTIIAENIAMDALEKGSKDNVSVIVSLLKWKEGHHHHHH | not soluble
19 | MSLKKYLGIIVDAVSRRQFKGEITVENGKILRVEEKEHDHERYILPGLVDAHVHIESSMTVPSVFARMAVAKGTVAVVSDPHEIANVMGEEGIDFMLGDSKRSPLKVFFGVPSCVPATPFESAGSVLDAEAVDRLLAREDLYYLSEMMNFPGVVLGFPDVMAKLESAKKCGKVIDGHAPGLRGADLETYIGVGISTDHESFTYEEAVEKIKLGMKILIREGSSARNFETLYSLIDEYPEAVMLCTDDSHPDTLIYEGHIDKLIRRGQEKGLDIFNLIRAAVINPVEHYGLNVGLLREGDPADFITVDDLKSFNVLSTFIDGECVYENGEGHHHHHH | soluble
